Target: recombinant human β-actin (wild type) (human) (UniProt P60709)
Experiment: ITC; VP-ITC, 25 °C, G-buffer (5 mM Tris-HCl pH 7.8, 0.1 mM CaCl2, 0.2 mM DTT, 0.2 mM ATP, 0.01% NaN3); 29 injections of 10 μl Tβ4 (100 μM) into actin (10 μM) in the cell

Question: For “thymosin β4 (from UniProt P62328 1-44) (peptide)”, which Kd is on record?
Answer: The Kd was 500 nM.

— article PMC5031973
